Data taken from the supplement of paper PMC9233669.
Variants at the floor of the assay were thinned out.

Tests used:
[1] = test system: biotinyl-Phe-oxazolone; test: self-aminoacylation, catalytic enhancement (BFO) (fold over background); higher = more active; k-Seq, kA / k0A0; sequences stand for … in GGGAAUGGAUCCACAUCUACGAAUUC…UUCACUGCAGACUUGACGAAGCUG
Outline: (§1)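 Each biotinyl-aminoacyl-oxazolone, at 2–1250 μM, was incubated with mutagenized RNA pools (0.43 μM) carrying a 21-nt variable region. The 50 μL reactions contained HEPES/NaCl/KCl/MgCl2/CaCl2 buffer with 5% acetonitrile at pH 6.9–7.0 and ran for 90 minutes at room temperature. After streptavidin capture, RNA was measured by qPCR in triplicate and by Illumina sequencing, and catalytic enhancement was calculated as median kA over the uncatalyzed rate from a pseudo-first-order fit of per-sequence fraction reacted.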

[2] = test system: biotinyl-Trp-oxazolone; test: self-aminoacylation, catalytic enhancement (BWO) (fold over background); higher = more active; k-Seq, kA / k0A0; sequences stand for … in GGGAAUGGAUCCACAUCUACGAAUUC…UUCACUGCAGACUUGACGAAGCUG
Outline: as §1

[3] = test system: biotinyl-Val-oxazolone; test: self-aminoacylation, catalytic enhancement (BVO) (fold over background); higher = more active; k-Seq, kA / k0A0; sequences stand for … in GGGAAUGGAUCCACAUCUACGAAUUC…UUCACUGCAGACUUGACGAAGCUG
Outline: as §1

[4] = test system: biotinyl-Leu-oxazolone; test: self-aminoacylation, catalytic enhancement (BLO) (fold over background); higher = more active; k-Seq, kA / k0A0; sequences stand for … in GGGAAUGGAUCCACAUCUACGAAUUC…UUCACUGCAGACUUGACGAAGCUG
Outline: as §1

[5] = test system: biotinyl-Met-oxazolone; test: self-aminoacylation, catalytic enhancement (BMO) (fold over background); higher = more active; k-Seq, kA / k0A0; sequences stand for … in GGGAAUGGAUCCACAUCUACGAAUUC…UUCACUGCAGACUUGACGAAGCUG
Outline: as §1

[6] = test system: biotinyl-Ile-oxazolone; test: self-aminoacylation, catalytic enhancement (BIO) (fold over background); higher = more active; k-Seq, kA / k0A0; sequences stand for … in GGGAAUGGAUCCACAUCUACGAAUUC…UUCACUGCAGACUUGACGAAGCUG
Outline: as §1

| Sequence | self-aminoacylation [1] | self-aminoacylation [2] | self-aminoacylation [3] | self-aminoacylation [4] | self-aminoacylation [5] | self-aminoacylation [6] |
| --- | --- | --- | --- | --- | --- | --- |
| AUCACCCUGGUCUUCGAGUGA [Fam2.1 aminoacylation ribozyme variant] | 50.3 | 9.14 | 4.74 | 8.44 | 8.01 | 3.81 |
| AUCACCCUGGUGAUCGAGUGA [Fam2.1 aminoacylation ribozyme variant] | 54.1 | 8.41 | 3.87 | 8.91 | 7.25 | 3.57 |
| AUCACCCUUGUCAUCGAGUGA [Fam2.1 aminoacylation ribozyme variant] | 59.7 | 10.7 | 4.91 | 10.1 | 9.48 | 4.65 |
| AUCACCUUGGUCAUCGAGUGA [Fam2.1 aminoacylation ribozyme variant] | 5.13 | 7.19 | 3.35 | 6.86 | 5.76 | 3.39 |
| AUCCACCGAGGUCAUCGGGUG [Fam2.2 aminoacylation ribozyme variant] | 125 | 7.06 | 6.67 | 13.4 | 9.91 | 5.2 |
| AUCCACCUAGGCCAUCGGGUG [Fam2.2 aminoacylation ribozyme variant] | 27.4 | 6.22 | 4.12 | 5.49 | 3.46 | 3.55 |
| AUCCACCUAGGUAAUCGGGUG [Fam2.2 aminoacylation ribozyme variant] | 27.6 | 5.34 | 3.1 | 4.49 | 3.45 | 3 |
| AUCCACCUAGGUCAGCGGGUG [Fam2.2 aminoacylation ribozyme variant] | 31.2 | 4.43 | 4.02 | 5.2 | 3.79 | 3.68 |
| AUCCACCUAGGUCAUCGGGCG [Fam2.2 aminoacylation ribozyme variant] | 20.9 | 3.38 | 3.87 | 5.85 | 5.3 | 4.91 |
| AUCCACCUAGGUCAUCGGGUA [Fam2.2 aminoacylation ribozyme variant] | 275 | 26.5 | 18.1 | 53.2 | 39.4 | 20.2 |
| AUCCACCUAGGUCAUCGGUUG [Fam2.2 aminoacylation ribozyme variant] | 5.85 | 1.84 | 1.52 | 1.41 | 1.5 | 1.31 |
| AUCCACCUAGGUCAUUGGGUG [Fam2.2 aminoacylation ribozyme variant] | 24.6 | 3.8 | 3.24 | 3.86 | 3.76 | 3.51 |
| AUCCACCUAGGUCCUCGGGUG [Fam2.2 aminoacylation ribozyme variant] | 31.1 | 6.83 | 4.71 | 6.47 | 6.2 | 3.76 |
| AUCCACCUAGUUCAUCGGGUG [Fam2.2 aminoacylation ribozyme variant] | 24.1 | 4.63 | 3.24 | 4.83 | 3.53 | 2.9 |
| AUCCACGUAGGUCAUCGGGUG [Fam2.2 aminoacylation ribozyme variant] | 37.4 | 4.86 | 4.96 | 4.88 | 4.61 | 3.4 |
| AUCCACUUAGGUCAUCGGGUG [Fam2.2 aminoacylation ribozyme variant] | 63.8 | 7.26 | 4.85 | 8.6 | 6.88 | 5.19 |
| AUCCCCCUAGGUCAUCGGGUG [Fam2.2 aminoacylation ribozyme variant] | 132 | 12.6 | 8.74 | 17.6 | 13.3 | 8.62 |
| AUGACCCUGGUCAACGAGUGA [Fam2.1 aminoacylation ribozyme variant] | 32.5 | 6.86 | 3.52 | 6.02 | 5.77 | 3.48 |
| AUGACCCUGGUCAUCGAGUUA [Fam2.1 aminoacylation ribozyme variant] | 9.13 | 3.71 | 2.44 | 5.29 | 6.25 | 2.81 |
| AUGACCCUGGUCAUCGCGUGA [Fam2.1 aminoacylation ribozyme variant] | 126 | 19.7 | 7.53 | 17.1 | 16 | 7.46 |
| AUGACUCUGGUCAUCGAGUGA [Fam2.1 aminoacylation ribozyme variant] | 23.2 | 5.56 | 2.75 | 5.16 | 4.86 | 2.62 |
| AUGAUUGCUAAUAGUCGCAAG [Fam3.1 aminoacylation ribozyme variant] | 2.06 | 1.61 | 1.24 | 1.53 | 1.67 | 1.34 |
| AUGCACCAAGGUCAUCGGGUG [Fam2.2 aminoacylation ribozyme variant] | 59.9 | 9.96 | 5.23 | 9.2 | 7.84 | 4.95 |
| AUGCACCUAGAUCAUCGGGUG [Fam2.2 aminoacylation ribozyme variant] | 10.6 | 3.8 | 2.69 | 2.64 | 2.41 | 2.13 |
| AUGCACCUAGGACAUCGGGUG [Fam2.2 aminoacylation ribozyme variant] | 19.4 | 5.58 | 2.54 | 4.43 | 3.57 | 3.37 |
| AUGCACCUAGGGCAUCGGGUG [Fam2.2 aminoacylation ribozyme variant] | 30.6 | 4.75 | 3.46 | 3.16 | 3.04 | 2.89 |

| Sequence | self-aminoacylation [1] | self-aminoacylation [2] | self-aminoacylation [3] | self-aminoacylation [4] | self-aminoacylation [5] | self-aminoacylation [6] |
| --- | --- | --- | --- | --- | --- | --- |
| AUGCACCUAGGUCAUCGAGUG [Fam2.2 aminoacylation ribozyme variant] | 4.83 | 3.75 | 2.56 | 3.96 | 3.33 | 2.61 |
| AUGCACCUAGGUCAUCGGGAG [Fam2.2 aminoacylation ribozyme variant] | 1.08 | 1.94 | 1.51 | 1.54 | 1.39 | 1.56 |
| AUGCACCUAGGUCAUCGGUUG [Fam2.2 aminoacylation ribozyme variant] | 5.04 | 1.48 | 1.24 | 1.28 | 1.26 | 1.42 |
| AUGCACCUAGGUCAUCGUGUG [Fam2.2 aminoacylation ribozyme variant] | 4.56 | 0.926 | 1.04 | 0.934 | 1.18 | 1.04 |
| AUGCACCUAGGUCCUCGGGUG [Fam2.2 aminoacylation ribozyme variant] | 27.2 | 5.64 | 3.19 | 5.43 | 3.7 | 3.44 |
| AUGCACCUAGGUCGUCGGGUG [Fam2.2 aminoacylation ribozyme variant] | 8.26 | 2.39 | 1.8 | 2.42 | 1.75 | 1.68 |
| AUGCACCUAUGUCAUCGGGUG [Fam2.2 aminoacylation ribozyme variant] | 26.4 | 4.24 | 2.48 | 5.19 | 4.11 | 2.81 |
| AUGCACCUCGGUCAUCGGGUG [Fam2.2 aminoacylation ribozyme variant] | 32.6 | 6.81 | 3.86 | 6.47 | 5.38 | 4.1 |
| AUGCACCUGGGUCAUCGGGUG [Fam2.2 aminoacylation ribozyme variant] | 21.2 | 3.63 | 3.8 | 3.18 | 4.33 | 3.37 |
| AUGCAUCUAGGUCAUCGGGUG [Fam2.2 aminoacylation ribozyme variant] | 57 | 9.62 | 5.41 | 9.38 | 8.33 | 5.83 |
| AUGCCCCUGGUCAUCGAGUGA [Fam2.1 aminoacylation ribozyme variant] | 38.4 | 10 | 5.59 | 10.2 | 9.73 | 5.14 |
| AUGCUCCUAGGUCAUCGGGUG [Fam2.2 aminoacylation ribozyme variant] | 37.6 | 7.13 | 4.4 | 8.92 | 7.47 | 5.26 |
| AUGCUUCAAACAAUCGGUCUG [Fam1A.1 aminoacylation ribozyme variant] | 129 | 50.6 | 1.99 | 3.36 | 2.1 | 2.25 |
| AUGGACCUAGGUCAUCGGGUG [Fam2.2 aminoacylation ribozyme variant] | 22 | 4.36 | 3.04 | 4.55 | 3.77 | 3.46 |
| AUGGCCCUGGUCAUCGAGUGA [Fam2.1 aminoacylation ribozyme variant] | 729 | 76.5 | 29.1 | 84.6 | 82.9 | 27.1 |
| AUGUACCUAGGUCAUCGGGUG [Fam2.2 aminoacylation ribozyme variant] | 34 | 5.8 | 3.08 | 5.37 | 5.49 | 3.62 |
| AUGUCCCUGGUCAUCGAGUGA [Fam2.1 aminoacylation ribozyme variant] | 246 | 41.4 | 17.2 | 40.9 | 44.2 | 15.1 |
| AUGUCUGCUAAUAGUCGCAAG [Fam3.1 aminoacylation ribozyme variant] | 35.5 | 9.53 | 1.56 | 1.74 | 2.25 | 1.91 |
| AUGUUAGCUAAUAGUCGCAAG [Fam3.1 aminoacylation ribozyme variant] | 1.84 | 0.993 | 1.29 | 1.39 | 1.45 | 1.57 |
| AUGUUCGCUAAUAGUCGCAAG [Fam3.1 aminoacylation ribozyme variant] | 3.79 | 1.67 | 1.55 | 1.14 | 1.65 | 1.58 |
| AUGUUUACUAAUAGUCGCAAG [Fam3.1 aminoacylation ribozyme variant] | 1.92 | 2.07 | 1.7 | 1.52 | 1.61 | 1.67 |
| AUGUUUGCCAAUAGUCGCAAG [Fam3.1 aminoacylation ribozyme variant] | 1.82 | 1.15 | 1.33 | 1.14 | 1.64 | 1.53 |
| AUGUUUGCUAAGAGUCGCAAG [Fam3.1 aminoacylation ribozyme variant] | 2.16 | 1.68 | 1.28 | 1.39 | 1.35 | 1.35 |
| AUGUUUGCUAAUAGUCGCAAC [Fam3.1 aminoacylation ribozyme variant] | 1.82 | 1.08 | 1.05 | 1.04 | 1.05 | 1.15 |
| AUGUUUGCUAAUAGUCGCGAG [Fam3.1 aminoacylation ribozyme variant] | 3.75 | 2.18 | 1.65 | 1.48 | 1.57 | 1.65 |
